This assay has as its target T1, HA-tagged USP48 (human, UniProt Q86UV5 1-1035).
T1 sequence (looked up): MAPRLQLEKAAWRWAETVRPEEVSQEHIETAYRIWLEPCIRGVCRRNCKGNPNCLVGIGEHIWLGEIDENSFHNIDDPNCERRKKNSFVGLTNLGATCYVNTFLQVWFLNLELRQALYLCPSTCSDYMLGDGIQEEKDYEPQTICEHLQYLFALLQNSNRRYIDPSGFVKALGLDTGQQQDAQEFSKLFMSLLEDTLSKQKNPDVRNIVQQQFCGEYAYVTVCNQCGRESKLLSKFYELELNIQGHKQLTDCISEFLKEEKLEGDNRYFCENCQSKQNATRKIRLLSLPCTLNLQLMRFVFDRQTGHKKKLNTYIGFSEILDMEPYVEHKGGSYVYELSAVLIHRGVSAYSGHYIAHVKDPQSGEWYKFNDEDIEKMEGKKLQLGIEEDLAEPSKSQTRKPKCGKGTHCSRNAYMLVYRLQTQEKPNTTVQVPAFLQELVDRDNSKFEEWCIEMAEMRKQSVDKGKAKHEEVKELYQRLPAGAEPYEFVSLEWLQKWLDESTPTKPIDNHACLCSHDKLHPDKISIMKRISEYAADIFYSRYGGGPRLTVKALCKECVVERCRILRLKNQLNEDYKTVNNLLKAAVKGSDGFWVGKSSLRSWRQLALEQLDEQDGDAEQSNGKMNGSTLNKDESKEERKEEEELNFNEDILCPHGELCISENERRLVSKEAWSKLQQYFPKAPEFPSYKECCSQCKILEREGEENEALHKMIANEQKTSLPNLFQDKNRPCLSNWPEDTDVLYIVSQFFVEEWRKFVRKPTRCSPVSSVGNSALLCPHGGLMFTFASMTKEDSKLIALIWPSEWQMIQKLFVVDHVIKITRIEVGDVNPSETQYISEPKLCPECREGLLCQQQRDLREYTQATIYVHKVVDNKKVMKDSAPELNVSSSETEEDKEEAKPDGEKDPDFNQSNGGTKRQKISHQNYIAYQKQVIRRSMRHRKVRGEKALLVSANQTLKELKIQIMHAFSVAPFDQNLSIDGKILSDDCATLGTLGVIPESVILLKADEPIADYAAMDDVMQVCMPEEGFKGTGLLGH
Briefly: pull-down.

B1: GST-HMGA2 (natural protein, human, UniProt P52926 1-109, looked up)
chain: MSARGEGAGQPSTSAQGQPAAPAPQKRGRGRPRKQQQEPTGEPSPKRPRGRPKGSKNKSPSKAAQKKAEATGEKRPRGRPRKWPQQVVQKKPAQEETEETSSQESAEED
Take B1: the binding result is “binds”.

(Values after publication PMC10985028 (Acta Pharmaceutica Sinica. B, 2024).)
